Reference: patent US10172917B2, “Targeted oesophageal administration of ZN-α2-glycoproteins (ZAG), methods and formulations thereof” (ASTON UNIVERSITY, priority 2012, dated 2019)

Columns and labels:
[1] = system: ob/ob mice; assay: Oral ZAG in drinking water to ob/ob mice: body weight, rectal temperature, urinary glucose excretion; type: in vivo, mouse
Procedure: Obese (ob/ob) mice (average weight 65 g) were bred in a colony, and were kept in an air conditioned room at 22+2° C. with ad libitum feeding of a rat and mouse breeding diet (Special Diet Services, Witham, UK) and tap water. […] Animals were grouped (n=5) to receive either ZAG/PBS (50 μg day^−1), or PBS in their drinking water, the experiment was repeated three times after a power analysis was performed. […] The ZAG was replaced every 48 h. […] The dose of ZAG was chosen to be the same as that previously administered i.v. (1), so that a direct comparison could be made, between the two routes. Body weight, food and water intake, urinary glucose excretion, and body temperature, determined by the use of a rectal thermometer (RS Components, Northants, UK), were measured daily. A glucose tolerance test was performed on day 3. Animals were fasted for 12 h, followed by oral administration of glucose (1 gkg^−1 in a volume of 100 μl by gavage). Blood samples were removed from the tail vein at 15, 30, 60 and 120 min and used for the measurement of glucose. Urinary glucose was measured by collecting 0.5 ml urine and testing glucose concentration using a Boots glucose monitor. After 8 days of treatment the animals were terminated by cervical dislocation, tissues were removed and rapidly frozen in liquid nitrogen, and maintained at −80° C. Future work would be to repeat this work in diet-induced animals as alternative to a model with gene alteration, although previous studies have shown the ob/ob mouse to be a good indicator of potential human treatments. Animal studies were conducted under Home Office Licence according to the UKCCCR Guidelines for the care and use of laboratory animals.

[2] = system: murine ZAG; assay: Western blotting of murine ZAG in serum and WAT of ob/ob mice; type: in vivo, mouse; settings: ob/ob mice dosed orally with human ZAG for 8 days, anti-mouse ZAG antibody
Procedure: Tissues were thawed, washed in PBS and lysed in Phosphosafe™ Extraction reagent for 5 min at room temperature, followed by sonication at 4° C. Cytosolic protein (5-20 ug) formed by centrifugation at 18,000 g for 5 min at 4° C., was resolved on 12% SDS PAGE by electrophoresis at 180V for about 1 h. To determine ZAG in serum 30 μl samples containing 20 μg total protein were electrophoresed as above. Protein was transferred to 0.45 μm nitrocellulose membranes, which had been blocked with 5% (w/v) non-fat dried milk (Marvel) in Tris-buffered saline, pH 7.5, at 4° C. overnight. Membranes were washed for 15 min in 0.1% Tween 20 buffered saline prior to adding the primary antibodies. Both primary and secondary antibodies were used at a dilution of 1:1000. Incubation was for 1 h at room temperature, and development was by ECL. Blots were scanned by a densitometer to quantify differences.

[3] = system: rats; settings: rats treated with ZAG; cited from earlier work
[4] = system: ZAG mRNA; assay: ZAG gene expression in mouse tissues by RT-PCR; type: in vivo; settings: mice treated with ZAG orally; compared to stomach, small intestine or colon
Procedure: Total RNA was extracted from tissues (50-120 mg) and adipocytes with Trizol. RNA samples used for real-time PCR were treated with a DNA-free kit (Ambion) to remove any genomic DNA. The RNA concentration was determined from the absorbance at 260 nm. 1 μg of total RNA of each sample was reverse transcribed to cDNA in a final volume of 20 μl by using a Reverse-iT first strand kit (ABgene). 1 μl of each cDNA sample was then amplified in a PCR mixture containing 0.02 mM of each primer and 1.1⋅Reddy Mix PCR Master Mix (ABgene) in a final volume of 25 μl. Human b-actin was used as a house keeping gene. The PCR products were sequenced commercially to confirm their identity (MWG Biotech). (7)
Relative ZAG mRNA levels were quantified using real-time PCR with an ABI Prism 7700 Sequence Detector (Applied Biosystems). Mouse β-actin mRNA levels were similarly measured and served as the reference gene. Primers and Taqman probes were designed using PrimerExpress software (Applied Biosystems).

[5] = system: ob/ob mice; assay: Oral glucose tolerance test in ob/ob mice after 3 days of oral ZAG; type: in vivo, mouse
Procedure: Animals were grouped (n=5) to receive either ZAG/PBS (50 μg day^−1), or PBS in their drinking water, the experiment was repeated three times after a power analysis was performed. […] The ZAG was replaced every 48 h. One group of mice receiving ZAG were also administered propanolol (40 mgkg^−1, p.o.) daily. The dose of ZAG was chosen to be the same as that previously administered i.v. (1), so that a direct comparison could be made, between the two routes. Body weight, food and water intake, urinary glucose excretion, and body temperature, determined by the use of a rectal thermometer (RS Components, Northants, UK), were measured daily. A glucose tolerance test was performed on day 3. Animals were fasted for 12 h, followed by oral administration of glucose (1 gkg^−1 in a volume of 100 μl by gavage). Blood samples were removed from the tail vein at 15, 30, 60 and 120 min and used for the measurement of glucose. Urinary glucose was measured by collecting 0.5 ml urine and testing glucose concentration using a Boots glucose monitor. After 8 days of treatment the animals were terminated by cervical dislocation, tissues were removed and rapidly frozen in liquid nitrogen, and maintained at −80° C. […] Animal studies were conducted under Home Office Licence according to the UKCCCR Guidelines for the care and use of laboratory animals.

[6] = 50 μg day^−1 po in drinking water

B1: zinc-α2-glycoprotein (protein, listed as Homo sapiens)
chain: QENQDGRYSLTYIYTGLSKHVEDVPAFQALGSLNDLQFFRYNSKDRKSQPMGLWRQVEGMEDWKEDSQLQKAREDMETLKDIVEYYNDSNGSHVLQGRFGCEIENNRSSGAFWKYYYDGKDYIEFNKEIPAWVPFDPAAQITKQKWEAEPVYVQRAKAYLEEECPATLRKYLKYSKNILDRQDPPSVVVTSHQAPGEKKKLKCLAYDFYPGKIDVHWTRAGQVQEPELRGDVLHNGNGTYQSWVVVAVPPQDTAPYSCHVQHSSLAQPLVVPWEAS
notes: Recombinant human ZAG, a 41 kDa protein, produced by HEK293F cells transfected with pcDNA3.1 containing human ZAG
increase in rectal temperature [1, 6]: 0.5 °C
reduction in urinary glucose excretion [1, 6]: 40%
loss of body weight / difference in body weight between ZAG and PBS groups ([1]; 50 μg day^−1 po in drinking water, after 8 days treatment): 5 g
difference in body weight between the ZAG and PBS groups ([1]; 50 μg per day in drinking water, after 5 days of treatment): 3.5 g
time of treatment after which increase in rectal temperature became significant ([1]; oral ZAG 50 μg per day): 4 days
time of treatment after which reduction in urinary glucose excretion became significant ([1]; oral ZAG 50 μg per day): 1 days
elevation of murine ZAG in serum [2]: two-fold
elevation of murine ZAG in serum ([2]; listed as human ZAG): 2 fold
rise in body temperature [3]: 0.4 °C
ZAG mRNA in oesophageal tissue [4]: dramatically increased
insulin response to the glucose challenge ([5]; after 3 days of oral ZAG): decreased the insulin response
peak blood glucose concentration in glucose tolerance test ([5]; after 3 days of oral ZAG): reduced peak blood glucose concentration
reduction in the total area under the curve (AUC) during oral glucose tolerance test ([5]; after 3 days of oral ZAG, glucose 1 gkg^−1 po after 12 h fast): 33%
sensitivity to insulin ([5]; oral ZAG 50 μg day^−1): increased sensitivity to insulin
